# Test results as given in the supplement of paper PMC12042874.
# ± gives the uncertainty stated by the source.
# Experiment: amyloid nucleation score (Sup35N fusion, yeast selection) (log enrichment); library NNK1; higher = more nucleation; inactive = no reads after selection
# Outline: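 Libraries of peptides of 20 random codons fused to Sup35N were expressed in psi-negative yeast and induced 24 hours with 100 μM copper sulfate. Selection was 7 days at 30°C on medium lacking adenine and uracil, and plasmid inserts were Illumina-sequenced before and after selection. Nucleation score is the DiMSum log enrichment of output over input reads, centred on the mode score of non-aggregating sequences, and sequences with under 100 input reads were left out.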
row,Substance,amyloid nucleation score
1,AFYWLHLDGFLQLNQQMSVA,0.992 ± 0.7
2,YGFVAYSDIVKAFGVIKSTG,-0.315 ± 0.31
3,GGIGDQVITRNVGRPREYQR,1.34 ± 0.76
4,LHSNGSD,inactive
5,ELNDVMRSGSKG,0.992 ± 1
6,NFLMSKTGLTPHR,0.07 ± 0.51
7,DPGVNALVLLILKTWDRDYE,-0.638 ± 0.69
8,TCFTLGRPNSLFCDCIGHKS,-0.011 ± 0.29
9,LRRLSMA,inactive
10,NCFVWRRMFKLISFDPYRV,inactive
11,GGRLEKRTCASCTSGQVVGV,0.294 ± 0.42
12,AVRVLPSLNVGAGMRQVVFT,0.693 ± 0.5
13,FICRFDVHWHSGMFSLYPWC,0.682 ± 0.47
14,LWFLIFSSKADAKVDRRILL,0.041 ± 0.47
15,CDSTVMRGLYCGRVVYSLFV,0.721 ± 0.47
16,DCPSS,0.537 ± 0.29
17,YFLLLRFY,0.094 ± 0.44
18,CHNHRMYH,0.072 ± 0.9
19,DHVDYSILNYSPMFDCVKFC,0.028 ± 0.27
20,LSVYA,0.612 ± 0.45
21,VELLGQYVICPSTRCRIVEN,0.254 ± 0.47
22,CFFYDCGWTCPLKNIGSYTF,0.07 ± 0.51
23,TISSLNLTRLSLDIFDFQSQ,3.25 ± 0.21
24,SVLGSHSRAKLITAWPTRKI,inactive
25,HRSTVAKSTRKLPGICSVFW,0.845 ± 0.8

row,Substance,amyloid nucleation score
1,LWLRLRFVCKYRV,1.9 ± 0.59
2,VSRLEVPRFLCTLQSTLLSS,-0.123 ± 0.86
3,GSADSFRGYGCFILVKATWY,0.717 ± 0.46
4,SFGNVILSGIIRTTVLDRGV,-0.381 ± 0.74
5,CFTICFVGYCSRVKGWLMQR,-0.617 ± 0.71
6,CFEDRYSLRCGM,-0.397 ± 0.34
7,TWYLDFFSSPFLVGFSLSFG,0.633 ± 0.49
8,SCSELGMLERLDMGLTLEVL,-0.105 ± 0.36
9,RWCVVSEKTFCINYTRLSFA,0.888 ± 0.23
10,AEYCSNVGMSLYFLWSKPMQ,1.89 ± 0.18
11,VSRMGVGTIRTQVHGIRGGT,-0.522 ± 1.6
12,AKSLVDRKRVDNPWRFSVGW,0.297 ± 0.51
13,GCEFWSYTLTLRGKNACNKL,-0.234 ± 0.42
14,YVTFGWIYTSLVPYRLEVIL,0.243 ± 0.42
15,VTLSIYVNNSDGISR,0.588 ± 0.4
16,WMYRLYSISLITSDCS,0.514 ± 0.33
17,TNRWADQTNKDAHRQTCD,-0.591 ± 1.1
18,LLALCCDSLRCYR,0.282 ± 1.2
19,FMRMFVIIKHHVEVRRPRFI,0.413 ± 0.7
20,YGEHMLVDRCMRWVSSFYRG,1.62 ± 0.3
21,VDLNWRHVDCCYFRFTTQDH,6.04 ± 0.074
22,RTLMRLN,-0.762 ± 0.41
23,VDDICIIVANSAGRDEQMSM,1.16 ± 0.56
24,VSDFGLGHGKQWRCRRQISL,0.685 ± 0.79
25,FPFAYGVSESQSSVIHVLDV,-0.063 ± 0.26

row,Substance,amyloid nucleation score
1,YGVNHRMYSKWHSVGAWMCR,1.21 ± 0.66
2,KNWARIMRNRNYSVSAILW,0.163 ± 0.61
3,VFMIVCK,inactive
4,GGRLNQHLRSNNTGTHHPGY,-0.533 ± 0.31
5,CFTYSARH,3.67 ± 0.11
6,VIYLGRIVVEGSNLTSKSSA,0.85 ± 0.7
7,PYLVVVTHMAMASHWDLLLP,0.25 ± 0.41
8,DQIGDYLRFACSDKDYS,0.039 ± 0.76
9,ILGTIYDIMQNGDIHRFLAY,-0.834 ± 1.2
10,GSHYP,0.586 ± 0.56
11,TAKSFFRVHFSHWTRHSPSR,4.16 ± 0.14
12,LPPARIFEGRSICYFVWYLP,0.232 ± 0.7
13,VQHRIISLALVYNTYNFSFS,8.018 ± 0.074
14,YCYYYVNTCVV,2.07 ± 0.53
15,GAIDRGCVDLARTCSLGLTG,0.508 ± 0.56
16,QSVQHFGGYTKTLGASMGTF,-0.797 ± 2.4
17,LQYGGQVISLNNR,1.97 ± 0.72
18,RFTNIFAKNRLCRLDMRRNT,-0.211 ± 0.56
19,TDAPP,0.126 ± 1.1
20,LVHMIAYAVGNLMCIRPLLI,-0.467 ± 0.43
21,FSYRSIWLRVLRV,-0.111 ± 0.4
22,FRGFVVGGGT,-0.664 ± 0.61
23,KGFLRFG,0.333 ± 0.38
24,ENPWFMCICYGANRVHVCNG,0.539 ± 0.33
25,WFTPNVWAGGVWHHVLGFGG,-0.93 ± 0.65

row,Substance,amyloid nucleation score
1,PHIIFNVVTITYMISALRHV,3.49 ± 0.09
2,SMMSGCGTGVAPKAWSGDGW,0.974 ± 0.62
3,VGHKNSYGRFKDIWIWLWYQ,-0.009 ± 1.4
4,IVYSLLYVRMSSNSMWVSV,0.958 ± 0.9
5,CVIRKSLFKCQFSMIRESWV,0.298 ± 0.31
6,LDTRSRSYVWSDLLRKAKAK,0.795 ± 0.6
7,RSCITESRRHIWRTGMVEKW,0.716 ± 0.48
8,QIVRTRFNRYR,-0.313 ± 1.1
9,EFYVTCFCVRMKTKAYAPLV,0.106 ± 0.31
10,RSGGTSSTALQQQLRFNRTR,0.581 ± 0.33
11,GSCFLCKI,0.686 ± 0.53
12,LSCQTPQSDEMSVAESAWAY,-1.18 ± 1.2
13,SRCCRYLKHVRSIGSVQVAS,1.16 ± 0.32
14,RRTIYASLRLY,0.066 ± 0.29
15,GVLGTGMRNCA,0.277 ± 0.88
16,NSHRNSWSYMRHYSQSLMC,0.227 ± 0.74
17,ELASSLIVFVDFSRACELNL,4.95 ± 0.12
18,LSRPTYSRMHIWISCHLIVV,-0.707 ± 1.7
19,RVGNNLNFM,-0.915 ± 0.3
20,MRLSCLRRWGSTSVSTG,-0.305 ± 0.36
21,YLLYDQQVSLRFVWITLSVW,0.683 ± 0.41
22,ICILLFGVRSDCM,1.44 ± 0.37
23,NDVTVID,0.286 ± 0.17
24,FQMLF,-0.752 ± 0.7
25,LLFSKRVLVSWGFDRGGSEE,0.336 ± 0.57

row,Substance,amyloid nucleation score
1,FRSVSGNMYTLLFRIE,1.62 ± 0.24
2,RCLGVCYTLDVFRSRMLDKL,-0.097 ± 0.44
3,RRVLRTSKNSSLMDFYATIE,0.299 ± 0.79
4,YHSSYVK,-1.36 ± 2.7
5,YDASGLWMCKERAEGFMRNV,-0.273 ± 0.95
6,LFKFYCKTYHTPLSLIYPFW,inactive
7,LSHWAIVFVICGPRSKKGGS,-0.115 ± 1
8,VHWRASCNMQLRADQRICIL,-0.84 ± 0.49
9,SCLSRASIYSRFHSNLYVKM,inactive
10,GYNMTKAYQCVCFIGDLPGT,4.61 ± 0.13
11,KVFISCYLWYA,3.8 ± 0.072
12,SQMTDYVFTL,0.848 ± 0.85
13,WVIVASP,-1.42 ± 0.85
14,ARPFRRCYSKADAWGVQQVG,0.556 ± 0.79
15,GRSSTRRNLIVDQSSVSERC,-0.009 ± 0.53
16,RMYYT,-1.52 ± 0.82
17,GYGWHLSANNPVSNIRCPRA,-0.407 ± 0.42
18,LKYTVPGLISPGFLGVVDYV,-0.624 ± 0.34
19,YFLICSLWPYVLPYCVCRFV,-0.728 ± 0.5
20,ILNTTHCHKHKKTCEHSACD,-0.883 ± 0.48
21,CRYPWRH,-0.042 ± 0.6
22,LLWRVSPSTLTSAIFKCLHS,-0.741 ± 0.86
23,GFNIDT,0.689 ± 1.2
24,FFRVLFFTFLAWYVELKWQL,-0.201 ± 0.78
25,GAVIVCVYMQALVVIDRASA,-0.62 ± 0.94

row,Substance,amyloid nucleation score
1,SKSYVM,0.468 ± 0.29
2,DYPPIRALVSFDCCAVSTCL,0.922 ± 0.93
3,AVITLQVHLLPEYFQAACIT,0.154 ± 0.38
4,DHHQGMM,-0.213 ± 1.2
5,YRGLGFVERESRDRG,-0.418 ± 0.8
6,VHGYL,0.067 ± 0.59
7,KACDRFNLTYKTVSVRMGDC,0.39 ± 0.28
8,NYSYNYLVVKRENTGYSGQV,0.917 ± 0.42
9,ILYNA,-0.166 ± 1.2
10,KLSGFKFEVTCDGHEFWGHP,1.08 ± 0.54
11,RATCVFCYTICFSWPSVWTF,3.5 ± 0.062
12,FWANH,inactive
13,GKLPYVFRDCNKTVLVMALF,0.947 ± 0.73
14,KTFVPWISCATSIEVFYVAS,1 ± 0.54
15,LQGSVIYLNIKSLGEGVWLF,3.44 ± 0.17
16,DSCVFARSIVVNSNSFEVIE,0.061 ± 0.47
17,VNGARRQFRRLMPCLEAWVS,-0.372 ± 0.32
18,FSYLSFCPVVSFESTFPTPM,5.29 ± 0.066
19,SKSGLGYTGHLLVREREVVV,0.474 ± 1
20,CVFVRVF,inactive
21,FVGRSVCAKMTPHRLTAIGP,-0.082 ± 0.67
22,LYFKSSRCR,1.12 ± 0.52
23,IETVLIVAY,0.355 ± 0.53
24,KSTLVKHLNQYYRLVLMGPL,1.1 ± 0.54
25,GSVCHILVGWVAYMWVF,-1.18 ± 1.2

row,Substance,amyloid nucleation score
1,HTGIIVKEVAQL,-0.507 ± 1.9
2,WLVGKTCNLYDLVLASLSNG,-0.704 ± 0.4
3,SESLWDRGTVPKRPCAASLQ,inactive
4,GYSNFTNYLFQ,0.091 ± 0.28
5,LISLLGSISMGPCIVRVYN,-0.259 ± 0.48
6,LILRVSFN,2.28 ± 0.16
7,VLFLHSS,0.355 ± 0.49
8,YDDTTMYRFWLHFKM,0.638 ± 0.3
9,ISTAVAIAGQQARNWGAHLR,-0.196 ± 0.46
10,VLPMTGYSRLRPIYRFMFFD,0.273 ± 0.44
11,GLSGTSALPPGIS,0.318 ± 0.79
12,YVWDAHIINVYLS,6.51 ± 0.081
13,NSIDFVFDDGVLIRFVIKVS,inactive
14,FASASLLFSKPESG,-1.41 ± 2.4
15,WIEEIVCIGS,1.03 ± 0.68
16,YGNFKVGFFVIRAWNWLNLI,0.319 ± 1.2
17,RYFNGYITGNLNSASNARSS,1.81 ± 0.18
18,FYQLYLINSTCHGRSRYILS,0.155 ± 0.51
19,LFMNCLILRMFTCAFHNSSE,6.39 ± 0.078
20,LIVMVKV,0.111 ± 0.33
21,LPSSSPMTRR,-0.837 ± 1.7
22,RGGMF,-0.252 ± 0.67
23,LEYYLVWYNVYL,0.534 ± 0.19
24,LVHSFMW,0.876 ± 0.51
